The values below come from US20240109954A1 (GENERAL HOSPITAL, published 2024).

Positions count from the first letter of the chain named. Numbers in names are those of the source.

For experiment [1], the target named is T1, human FcγR3B (human, UniProt O75015 17-200).
T1 construct: also called huFcγR3B
Put plainly: SPR, mAb printed on chip, FcγR injected. (In SPR one partner is held on a chip, and binding of the other changes the refractive index at the surface.)

Experiment [2] concerns the target T2, human FcγR2A (R131) (human, UniProt P12318 34-217).
T2 construct: also called huFcγR2A
T2 sequence: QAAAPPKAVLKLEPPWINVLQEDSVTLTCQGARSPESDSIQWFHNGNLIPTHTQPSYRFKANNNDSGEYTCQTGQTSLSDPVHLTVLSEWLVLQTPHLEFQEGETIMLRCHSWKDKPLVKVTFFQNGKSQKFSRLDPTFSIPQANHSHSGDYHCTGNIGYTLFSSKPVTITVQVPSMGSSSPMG
Briefly: SPR, mAb printed on chip, FcγR injected.

In the next experiment the target is T3, human FcγR3A (F158) (human, UniProt P08637 17-208).
T3 construct: also called huFcγR3A
Briefly: SPR, mAb printed on chip, FcγR injected.

The target in the next experiment is T4, human FcγR2B (human, UniProt P31994 43-217).
T4 construct: also called huFcγR2B
T4 sequence: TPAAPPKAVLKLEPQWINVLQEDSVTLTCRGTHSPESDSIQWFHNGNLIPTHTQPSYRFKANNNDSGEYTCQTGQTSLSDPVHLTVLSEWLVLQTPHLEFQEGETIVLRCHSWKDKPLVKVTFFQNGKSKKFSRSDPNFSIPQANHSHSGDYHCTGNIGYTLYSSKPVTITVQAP
Put plainly: SPR, mAb printed on chip, FcγR injected.

In experiment [3] the target is T5, mouse FcγRIV (mouse, UniProt A0A0B4J1G0 21-203).
T5 construct: also called mFcγRIV
T5 sequence: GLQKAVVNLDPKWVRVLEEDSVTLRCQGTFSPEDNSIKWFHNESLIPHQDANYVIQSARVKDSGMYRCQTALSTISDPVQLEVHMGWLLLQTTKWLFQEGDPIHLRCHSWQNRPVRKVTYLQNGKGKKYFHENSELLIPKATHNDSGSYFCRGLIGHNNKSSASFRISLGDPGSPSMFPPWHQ
Put plainly: BLI, mAb on anti-human Fab-CH1 sensor, FcγR in solution.

The target of a further experiment is T6, mouse FcγRI (mouse, UniProt P26151 25-297).
T6 construct: also called mFcγRI
T6 sequence: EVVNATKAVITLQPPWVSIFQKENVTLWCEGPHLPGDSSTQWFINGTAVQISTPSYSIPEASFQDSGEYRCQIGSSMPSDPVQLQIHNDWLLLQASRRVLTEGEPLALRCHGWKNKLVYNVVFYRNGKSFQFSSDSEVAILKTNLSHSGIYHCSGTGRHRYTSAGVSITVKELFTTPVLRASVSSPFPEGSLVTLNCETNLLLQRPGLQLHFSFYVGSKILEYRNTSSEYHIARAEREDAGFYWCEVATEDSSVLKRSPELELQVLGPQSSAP
Described as above.

For a further experiment, the target named is T7, mouse FcγRIII (mouse, UniProt P08508 31-215).
T7 construct: also called mFcγRIII; mFcγR3
T7 sequence: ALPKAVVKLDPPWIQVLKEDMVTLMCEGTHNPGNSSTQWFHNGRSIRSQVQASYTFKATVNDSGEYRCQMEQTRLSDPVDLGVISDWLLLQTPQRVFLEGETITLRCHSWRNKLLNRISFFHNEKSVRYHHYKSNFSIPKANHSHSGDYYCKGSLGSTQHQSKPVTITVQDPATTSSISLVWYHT
The description is as above.

In experiment [4] the target is T8, mouse FcγRIIb (mouse, UniProt P08101 30-210).
T8 construct: also called mFcγRIIb; mFcγR2b
T8 sequence: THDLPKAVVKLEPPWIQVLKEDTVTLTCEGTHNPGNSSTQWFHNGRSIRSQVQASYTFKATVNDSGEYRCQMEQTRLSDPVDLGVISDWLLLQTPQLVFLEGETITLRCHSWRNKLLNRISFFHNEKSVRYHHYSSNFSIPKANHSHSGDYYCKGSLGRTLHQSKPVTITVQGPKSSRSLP
The description is as above.

Experiment [5] concerns the target T5, mouse FcγRIV. Put plainly: SPR (IBIS MX96): mAb printed on the chip, recombinant FcγR injected at 10 to 0.005 µM; axis 'KD, M^-1', that is the reciprocal of KD.
Experiment [6] concerns the target T1, human FcγR3B. The experiment is described as above.
In experiment [7] the target is T8, mouse FcγRIIb. Described as above.
The target in experiment [8] is T2, human FcγR2A (R131). Briefly: SPR, mAb printed on chip, FcγR injected. The source holds these as a separate data set.
Experiment [9] addresses T9, EBOV GP displayed on vesicular stomatitis virus (VSV) pseudovirions (Ebola virus, UniProt Q05320 33-676).
T9 sequence: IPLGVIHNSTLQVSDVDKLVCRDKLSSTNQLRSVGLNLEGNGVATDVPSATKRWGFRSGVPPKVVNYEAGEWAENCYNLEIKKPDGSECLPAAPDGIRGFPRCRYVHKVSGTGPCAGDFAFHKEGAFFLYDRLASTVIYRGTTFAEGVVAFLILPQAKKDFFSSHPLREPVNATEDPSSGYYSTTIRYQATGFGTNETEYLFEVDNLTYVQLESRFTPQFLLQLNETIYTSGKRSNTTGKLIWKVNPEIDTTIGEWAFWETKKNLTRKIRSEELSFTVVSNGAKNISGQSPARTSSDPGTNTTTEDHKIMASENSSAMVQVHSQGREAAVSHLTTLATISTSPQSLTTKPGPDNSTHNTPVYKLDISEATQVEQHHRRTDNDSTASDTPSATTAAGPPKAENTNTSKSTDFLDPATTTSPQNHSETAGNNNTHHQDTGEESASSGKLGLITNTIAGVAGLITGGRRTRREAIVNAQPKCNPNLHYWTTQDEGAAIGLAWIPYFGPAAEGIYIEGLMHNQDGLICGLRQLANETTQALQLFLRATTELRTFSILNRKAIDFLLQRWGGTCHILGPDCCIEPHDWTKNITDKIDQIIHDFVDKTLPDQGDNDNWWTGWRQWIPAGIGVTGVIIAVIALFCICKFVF
Briefly: cell-based or functional assay.

Experiment [10] has as its target T8, mouse FcγRIIb. Put plainly: BLI, mAb on anti-human Fab-CH1 sensor, FcγR in solution. This is another data set of the same source. A general note: BLI is a label-free optical method that tracks binding on a fibre tip over time.

T3 sequence (P08637 17-208): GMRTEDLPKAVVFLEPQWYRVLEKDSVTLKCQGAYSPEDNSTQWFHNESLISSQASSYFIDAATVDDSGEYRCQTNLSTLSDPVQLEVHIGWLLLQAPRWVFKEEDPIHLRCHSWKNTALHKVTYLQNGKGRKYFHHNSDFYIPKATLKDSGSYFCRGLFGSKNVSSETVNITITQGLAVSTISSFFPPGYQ
T1 sequence (O75015 17-200): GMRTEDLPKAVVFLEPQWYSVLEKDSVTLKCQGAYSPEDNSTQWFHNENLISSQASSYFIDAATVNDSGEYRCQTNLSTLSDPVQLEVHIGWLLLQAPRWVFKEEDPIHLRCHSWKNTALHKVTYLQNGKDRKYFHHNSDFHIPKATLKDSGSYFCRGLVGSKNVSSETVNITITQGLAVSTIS

B1: VIC16-IgG1 (antibody)
heavy: not shown
light: DIVITQDTASLAVSRGQRATISCRASESVEYYGTTLMQWYQQRPGQPPKLLIYGASNVESGVPARFSGSGSGTDFSLNIHPVEEDDIAMYFCQQSRKVPYTFGGGTKLEIKRTVAAPSVFIFPPSDEQLKSGTASVVCLLNNFYPREAKVQWKVDNALQSGNSQESVTEQDSKDSTYSLSSTLTLSKADYEKHKVYACEVTHQGLSSPVTKSFNRGEC
notes: also called VIC16 human IgG1; wild type IgG1
Usually Kd stands for the concentration at which binding is half-saturated. The low end stands for higher affinity, the high end for lower affinity. Consider B1, for which the Kd with human FcγR3B [1] worked out at 25000 nM; with human FcγR2A (R131) [2], 30000 nM; with human FcγR3A (F158) it was 6100 nM; with human FcγR2B it was 23000 nM; with mouse FcγRIV [3] it was 240 nM; with mouse FcγRI, 80 nM. For the same molecule, the Kd in the experiment with mouse FcγRIII came out at 2830 nM; with mouse FcγRIIb [4], 14900 nM. Further, the “fold-change relative to IgG1” value with human FcγR3B [1], with human FcγR2A (R131) [2], with human FcγR3A (F158), in the experiment with human FcγR2B, with mouse FcγRIV [3] and with mouse FcγRI was 1 fold in each case. Further, the “fold-change relative to IgG1” value with mouse FcγRIII and in the experiment with mouse FcγRIIb [4] was 1 fold throughout.

B2: VIC16-SELF (antibody)
heavy: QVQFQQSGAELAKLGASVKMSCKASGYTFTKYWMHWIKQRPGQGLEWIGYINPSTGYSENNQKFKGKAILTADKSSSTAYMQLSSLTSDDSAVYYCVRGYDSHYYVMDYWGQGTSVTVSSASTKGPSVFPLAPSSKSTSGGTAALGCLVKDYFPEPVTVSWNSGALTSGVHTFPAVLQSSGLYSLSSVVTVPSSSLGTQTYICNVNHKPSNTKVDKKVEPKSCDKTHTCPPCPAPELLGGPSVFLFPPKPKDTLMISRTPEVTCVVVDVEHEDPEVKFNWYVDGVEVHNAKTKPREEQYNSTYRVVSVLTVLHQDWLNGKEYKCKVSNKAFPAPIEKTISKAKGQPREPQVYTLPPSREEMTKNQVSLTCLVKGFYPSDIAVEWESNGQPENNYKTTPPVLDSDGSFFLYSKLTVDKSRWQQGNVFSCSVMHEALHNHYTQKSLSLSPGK
light: B1 light
As to B2, the binding result with mouse FcγRIV [5] is “binds”.

B3: VIC16-SDIESA-LS (antibody)
heavy: QVQFQQSGAELAKLGASVKMSCKASGYTFTKYWMHWIKQRPGQGLEWIGYINPSTGYSENNQKFKGKAILTADKSSSTAYMQLSSLTSDDSAVYYCVRGYDSHYYVMDYWGQGTSVTVSSASTKGPSVFPLAPSSKSTSGGTAALGCLVKDYFPEPVTVSWNSGALTSGVHTFPAVLQSSGLYSLSSVVTVPSSSLGTQTYICNVNHKPSNTKVDKKVEPKSCDKTHTCPPCPAPELLGGPDVFLFPPKPKDTLMISRTPEVTCVVVDVSHEDPEVKFNWYVDGVEVHNAKTKPREEQYNATYRVVSVLTVLHQDWLNGKEYKCKVSNKALPAPEEKTISKAKGQPREPQVYTLPPSREEMTKNQVSLTCLVKGFYPSDIAVEWESNGQPENNYKTTPPVLDSDGSFFLYSKLTVDKSRWQQGNVFSCSVLHEALHSHYTQKSLSLSPGK
light: B1 light
As to B3, the binding result with human FcγR3B [6] and in the experiment with mouse FcγRIV [5] was “binds” throughout.

B4: VIC16-MLNS (antibody)
heavy: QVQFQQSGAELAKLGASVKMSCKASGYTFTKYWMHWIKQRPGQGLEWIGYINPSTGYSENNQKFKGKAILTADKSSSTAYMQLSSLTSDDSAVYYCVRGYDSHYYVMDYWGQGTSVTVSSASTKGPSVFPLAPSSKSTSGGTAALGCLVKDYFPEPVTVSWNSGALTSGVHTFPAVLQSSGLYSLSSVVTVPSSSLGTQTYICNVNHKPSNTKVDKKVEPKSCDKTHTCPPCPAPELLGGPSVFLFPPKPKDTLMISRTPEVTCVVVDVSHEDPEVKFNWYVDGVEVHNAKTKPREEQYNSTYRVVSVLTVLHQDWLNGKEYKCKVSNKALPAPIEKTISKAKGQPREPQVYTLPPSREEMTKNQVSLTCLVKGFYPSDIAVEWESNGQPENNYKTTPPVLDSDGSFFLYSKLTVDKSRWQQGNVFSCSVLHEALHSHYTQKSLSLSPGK
light: B1 light
For B4, the binding result with mouse FcγRIV [5] is “binds”.

B5: VIC16-DVNH (antibody)
heavy: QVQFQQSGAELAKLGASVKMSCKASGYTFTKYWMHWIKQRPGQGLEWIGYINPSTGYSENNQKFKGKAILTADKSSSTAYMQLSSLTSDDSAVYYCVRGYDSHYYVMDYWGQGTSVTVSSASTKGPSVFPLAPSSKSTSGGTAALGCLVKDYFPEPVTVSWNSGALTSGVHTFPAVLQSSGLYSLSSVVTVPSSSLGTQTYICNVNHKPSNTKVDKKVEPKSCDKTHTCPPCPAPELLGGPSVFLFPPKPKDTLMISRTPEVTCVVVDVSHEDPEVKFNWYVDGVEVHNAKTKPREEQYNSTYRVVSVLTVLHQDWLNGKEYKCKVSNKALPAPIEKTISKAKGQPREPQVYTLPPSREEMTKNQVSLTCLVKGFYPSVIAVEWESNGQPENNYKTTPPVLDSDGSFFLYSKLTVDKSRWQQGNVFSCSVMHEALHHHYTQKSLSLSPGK
light: B1 light
As to B5, the binding result with mouse FcγRIV [5] is “binds”.

B6: VIC16-EANA (antibody)
heavy: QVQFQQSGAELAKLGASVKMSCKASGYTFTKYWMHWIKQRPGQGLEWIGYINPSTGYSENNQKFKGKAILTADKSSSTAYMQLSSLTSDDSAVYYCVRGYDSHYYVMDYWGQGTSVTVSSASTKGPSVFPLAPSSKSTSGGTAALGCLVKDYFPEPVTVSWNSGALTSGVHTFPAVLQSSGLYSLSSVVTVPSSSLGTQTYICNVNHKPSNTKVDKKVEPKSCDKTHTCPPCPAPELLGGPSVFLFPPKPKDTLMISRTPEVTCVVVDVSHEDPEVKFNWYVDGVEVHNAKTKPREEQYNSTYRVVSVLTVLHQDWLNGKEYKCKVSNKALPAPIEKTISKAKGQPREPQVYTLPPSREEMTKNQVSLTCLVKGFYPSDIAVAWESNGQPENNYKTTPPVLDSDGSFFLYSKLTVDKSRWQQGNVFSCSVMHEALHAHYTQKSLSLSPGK
light: B1 light
Turning to B6, in the experiment with mouse FcγRIIb [7], the binding result is “binds”.

B7: VIC16-E333A (antibody)
heavy: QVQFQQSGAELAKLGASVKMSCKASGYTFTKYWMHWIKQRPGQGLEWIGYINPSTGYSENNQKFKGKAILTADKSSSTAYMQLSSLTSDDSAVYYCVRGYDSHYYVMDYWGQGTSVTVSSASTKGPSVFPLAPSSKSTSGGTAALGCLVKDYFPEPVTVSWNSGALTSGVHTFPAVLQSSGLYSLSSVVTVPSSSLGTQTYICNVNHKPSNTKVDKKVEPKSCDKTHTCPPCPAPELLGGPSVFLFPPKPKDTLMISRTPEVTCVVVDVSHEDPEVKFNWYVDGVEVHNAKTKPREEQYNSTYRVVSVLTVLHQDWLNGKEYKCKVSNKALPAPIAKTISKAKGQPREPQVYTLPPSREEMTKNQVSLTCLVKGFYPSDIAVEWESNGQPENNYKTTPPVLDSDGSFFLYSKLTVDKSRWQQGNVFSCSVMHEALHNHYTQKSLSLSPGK
light: B1 light
Take B7: the binding result in the experiment with mouse FcγRIIb [7] is reported as “binds”.

B8: VIC16-SAEAKA (antibody)
heavy: B3 heavy with D242S, E335I, E336A, K337A, L431M, S437N
light: B1 light
Regarding B8, the binding result with mouse FcγRIV [5] and in the experiment with mouse FcγRIIb [7] was “binds” throughout.

B9: VIC16-EFTEA (antibody)
heavy: B3 heavy with G239A, D242S, S270E, H271F, A301S, S327T, L431M, S437N
light: B1 light
B9: the Kd with human FcγR3B [1] was 475000 nM; in the experiment with human FcγR2A (R131) [2] it was 252 nM; with human FcγR3A (F158), 6100 nM; with human FcγR2B, 1200 nM; in the experiment with mouse FcγRIV [3] it was 120 nM; with mouse FcγRI, 60 nM. The Kd is 1100 nM with mouse FcγRIII and 490 nM in the experiment with mouse FcγRIIb [4]. Also, the “fold-change relative to IgG1” value with human FcγR3B [1] came to 0.05 fold; with human FcγR2A (R131) [2], 119 fold; with human FcγR3A (F158) it was 1 fold; with human FcγR2B, 19 fold; with mouse FcγRIV [3], 2 fold; in the experiment with mouse FcγRI, 1.3 fold. In addition, the “fold-change relative to IgG1” value with mouse FcγRIII came to 9 fold; in the experiment with mouse FcγRIIb [4] it was 30 fold. In addition, in the experiment with human FcγR2A (R131) [8], the “fold higher KD compared to IgG1” value came out at 120 fold. In addition, in experiment [9], the “IC50, neutralization of VSV pseudotyped to display EBOV GP” value was under 1 µg/mL. The “fold increase in binding” value in the experiment with mouse FcγRIIb [10] came to 2 fold.

B10: VIC16-K326W (antibody)
heavy: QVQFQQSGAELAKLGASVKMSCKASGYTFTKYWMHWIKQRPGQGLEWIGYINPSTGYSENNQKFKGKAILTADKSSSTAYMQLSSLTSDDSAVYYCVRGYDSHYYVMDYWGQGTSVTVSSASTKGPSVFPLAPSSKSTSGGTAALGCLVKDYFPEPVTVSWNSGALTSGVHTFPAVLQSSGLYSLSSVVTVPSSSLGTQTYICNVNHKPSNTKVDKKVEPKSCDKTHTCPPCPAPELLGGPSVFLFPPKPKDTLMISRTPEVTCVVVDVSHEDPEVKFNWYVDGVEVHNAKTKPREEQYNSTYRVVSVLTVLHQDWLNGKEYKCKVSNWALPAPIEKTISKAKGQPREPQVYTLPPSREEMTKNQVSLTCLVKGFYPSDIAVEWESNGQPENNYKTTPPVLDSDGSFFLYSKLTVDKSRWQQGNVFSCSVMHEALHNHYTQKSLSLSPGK
light: B1 light
Regarding B10, the binding result with mouse FcγRIV [5] was “binds”.

B11: VIC16-SAEAKA-LS (antibody)
heavy: B3 heavy with D242S, E335I, E336A, K337A
light: B1 light
Turning to B11, the binding result with human FcγR3B [6], with mouse FcγRIV [5] and with mouse FcγRIIb [7] was “binds” each time.
